In patent publication US5576294A, “Human Kunitz-type protease inhibitor variant” (Novo Nordisk A/S, priority 1992, dated 1996):

Assays:
[1] = target: T1, Human neutrophil elastase (Homo sapiens, UniProt P08246); experiment: Inhibition of serine proteinases: neutrophil elastase; assay type: biochemical; conditions: Example 3; 30 min incubation, FIG. 3
T1 construct: Human neutrophil elastase and cathepsin G was purified from extracts of PMNs; from tissue; host or cells: extracts of human polymorphonuclear leukocytes (PMNs), method of Baugh and Travis
T1 sequence (P08246 30-267): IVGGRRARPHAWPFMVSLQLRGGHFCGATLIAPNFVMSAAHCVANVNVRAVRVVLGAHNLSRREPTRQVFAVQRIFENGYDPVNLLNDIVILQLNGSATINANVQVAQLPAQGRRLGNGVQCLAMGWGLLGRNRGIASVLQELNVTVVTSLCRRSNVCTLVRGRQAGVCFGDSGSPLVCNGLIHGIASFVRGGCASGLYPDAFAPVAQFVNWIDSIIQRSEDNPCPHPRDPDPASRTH
Procedure: (§1) KFN 1593 was purified from yeast culture medium as described in example 1. The concentration of KFN 1593 was determined using 1% E280 nm =8.3 and Mw =6500. Porcine trypsin was from Novo Nordisk (Bagsv.ae butted.rd, Denmark), bovine chymotrypsin (TLCK treated) and porcine pancreatic kallikrein was from Sigma Chemical Co (St. Louis, Mo., U.S.A.), human plasmin and human plasma kallikrein was from Kabi (Stockholm, Sweden).
(§2) Human neutrophil elastase and cathepsin G was purified from extracts of PMNs according to the method described by Baugh and Travis (Biochemistry 15 (1976) 836-843). Peptidyl nitroanilide substrates, S2251, S2586, S2266, S2302 were from Kabi (Stockholm, Sweden). M4765 and S7388 was from Sigma Chemical Co (St. Louis, Mo., U.S.A.) and FXa-1 was from NycoMed (Oslo, Norway).
Serine proteinases were incubated with various concentrations of KFN 1593 for 30 min. Substrate was then added and residual proteinase activity was measured at 405 nm. […]
(§3) The four variants were purified from yeast culture medium. Their concentrations were determined from the absorbance at 214 nm using BTPI as a standard. Porcine trypsin was obtained from Novo Nordisk A/S (Bagsvaerd, Denmark, bovine chymotrypsin (TLCK treated) was obtained from Sigma Chemical Co. (St. Louis, Mo., U.S.A.). Truncated human recombinant tissue factor was obtained from Corvas (San Diego, Calif., U.S.A.). Human plasmin was from Kabi (Stockholm, Sweden). Human neutrophil cathepsin G and elastase were purified from extracts of PMNs according to the method described by Baugh and Travis (Biochemistry 15 (1976) 836-843).
(§4) Peptidyl nitroanilide substrates, S2251, S2586 were from Kabi (Stockholm, Sweden). S7388 and M4765 were from Sigma Chemical Co. (St. Louis, Mo., U.S.A.).
(§5) Serine proteinases were incubated with various concentrations of the variants for 30 min. Substrate ([…]) was then added and residual proteinase activity was measured at 405 nm.

[2] = target: T2, Human neutrophil cathepsin G (Homo sapiens, UniProt P08311); experiment: Inhibition of serine proteinases: neutrophil cathepsin G; assay type: biochemical; conditions: Example 3; 30 min incubation, FIG. 3
T2 construct: Human neutrophil cathepsin G was purified from extracts of PMNs; from tissue; host or cells: extracts of human polymorphonuclear leukocytes (PMNs), method of Baugh and Travis
T2 sequence (P08311 21-255): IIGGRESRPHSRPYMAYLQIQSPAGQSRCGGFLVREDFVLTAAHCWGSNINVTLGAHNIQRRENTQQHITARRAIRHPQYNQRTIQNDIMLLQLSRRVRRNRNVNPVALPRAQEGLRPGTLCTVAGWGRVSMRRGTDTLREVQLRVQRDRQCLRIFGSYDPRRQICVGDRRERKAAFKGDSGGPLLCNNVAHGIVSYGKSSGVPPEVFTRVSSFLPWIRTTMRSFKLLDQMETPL
Procedure: as §1, §2
(§6) Serine proteinases were incubated with various concentrations of KFN 1593 for 30 min. Substrate was then added and residual proteinase activity was measured at 405 nm.
(§7) The three TFPI (domain II) variants were purified from yeast culture medium. Their concentrations were determined from the absorbance at 214 nm using BPTI as a standard. The final concentration was determined by titration with trypsin. Porcine trypsin and human recombinant proteins, factor VIIa, activated protein C (ACP), and tPA were obtained from Novo Nordisk A/S (Bagsvaerd, Denmark), so was human thrombin. Bovine chymotrypsin and glandular kallikrein were obtained from Sigma Chemical Co. (St. Louis, Mo., U.S.A.). Truncated human recombinant tissue factor was obtained from Corvas (San Diego, Calif., U.S.A.). Human neutrophil cathepsin G was purified from extracts of PMNs according to the method described by Baugh and Travis (Biochemistry 15 (1976) 836-843). Human plasmin was from Kabi (Stockholm, Sweden), uPA was from Serono (Milan, Italy), human factor Xa was a gift from Dr. W. Kisiel (Albuquerque, N.M., U.S.A.), and human plasma kallikrein was a gift from Dr. I Schousboe (Copenhagen, Denmark).
(§8) Peptidyl nitroanilide substrates, S2251, S2302, S2266, S2586, S2288, S2444, S2366, and S2238 were from Kabi (Stockholm, Sweden). S7388 and M4765 were from Sigma Chemical Co. (St. Louis, Mo., U.S.A.) and FXa-1 was from Nycomed (Oslo, Norway).
(§9) Serine proteinases were incubated with various concentrations of Kunitz Domain variant for 30 min. Substrate (0.6 mM) was then added and residual proteinase activity was measured at 405 nm.
as §3, §4, §5

plasma kallikrein [3] = target: T3, plasma kallikrein (Homo sapiens, UniProt P03952); experiment: Inhibition of serine proteinases: plasma kallikrein; assay type: biochemical; conditions: Example 3; 30 min incubation, FIG. 3
Procedure: as §1, §2, §6, §7, §8, §9
Target sequence in this assay (P03952 391-638 limits assumed): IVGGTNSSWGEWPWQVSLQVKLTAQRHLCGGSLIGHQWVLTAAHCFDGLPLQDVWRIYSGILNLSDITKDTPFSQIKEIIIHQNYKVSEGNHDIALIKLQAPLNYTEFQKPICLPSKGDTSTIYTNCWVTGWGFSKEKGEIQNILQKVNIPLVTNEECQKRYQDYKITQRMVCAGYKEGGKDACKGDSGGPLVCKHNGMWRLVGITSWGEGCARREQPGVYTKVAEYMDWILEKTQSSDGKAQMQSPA
Target sequence in this assay (P03952 20-390 limits assumed): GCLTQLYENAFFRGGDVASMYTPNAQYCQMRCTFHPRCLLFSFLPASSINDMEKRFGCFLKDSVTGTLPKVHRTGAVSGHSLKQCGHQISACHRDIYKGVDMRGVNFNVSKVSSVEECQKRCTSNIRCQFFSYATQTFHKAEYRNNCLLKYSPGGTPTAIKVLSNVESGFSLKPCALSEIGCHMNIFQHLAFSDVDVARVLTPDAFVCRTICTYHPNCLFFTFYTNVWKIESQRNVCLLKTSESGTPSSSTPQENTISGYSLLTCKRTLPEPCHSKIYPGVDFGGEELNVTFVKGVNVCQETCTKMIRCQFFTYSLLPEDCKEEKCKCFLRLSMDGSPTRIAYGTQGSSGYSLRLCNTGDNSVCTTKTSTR

[4] = target: T4, glandular kallikrein (porcine pancreatic kallikrein) (Sus scrofa, UniProt P00752); experiment: Inhibition of serine proteinases: glandular kallikrein; assay type: biochemical; conditions: Example 3; 30 min incubation, FIG. 3
T4 construct: purchased Sigma Chemical Co (St. Louis, Mo., U.S.A.)
T4 sequence (P00752 8-246): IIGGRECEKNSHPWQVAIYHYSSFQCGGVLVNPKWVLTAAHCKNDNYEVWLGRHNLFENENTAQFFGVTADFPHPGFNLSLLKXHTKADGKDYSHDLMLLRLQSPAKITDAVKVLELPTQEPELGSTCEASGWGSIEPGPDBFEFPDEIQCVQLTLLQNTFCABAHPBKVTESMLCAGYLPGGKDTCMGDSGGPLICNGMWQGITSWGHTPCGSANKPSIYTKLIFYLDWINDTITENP
Procedure: as §1, §2, §6, §7, §8, §9

human factor Xa = target: T5, human factor Xa (Homo sapiens, UniProt P00742); experiment: Inhibition of serine proteinases: Factor Xa; assay type: biochemical; conditions: Example 3; 30 min incubation; read-out: Ki, factor X.
T5 construct: human factor Xa was a gift from Dr. W. Kisiel; gift from Dr. W. Kisiel (Albuquerque, N.M., U.S.A.)
T5 sequence (P00742 235-488 limits assumed): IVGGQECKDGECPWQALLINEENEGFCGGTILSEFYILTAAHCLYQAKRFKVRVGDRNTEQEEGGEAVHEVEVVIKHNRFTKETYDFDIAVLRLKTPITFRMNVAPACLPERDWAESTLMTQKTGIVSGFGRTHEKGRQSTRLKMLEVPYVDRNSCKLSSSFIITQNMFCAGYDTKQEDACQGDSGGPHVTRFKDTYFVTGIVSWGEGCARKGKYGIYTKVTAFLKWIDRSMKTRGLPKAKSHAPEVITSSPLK
T5 sequence (P00742 41-179 limits assumed): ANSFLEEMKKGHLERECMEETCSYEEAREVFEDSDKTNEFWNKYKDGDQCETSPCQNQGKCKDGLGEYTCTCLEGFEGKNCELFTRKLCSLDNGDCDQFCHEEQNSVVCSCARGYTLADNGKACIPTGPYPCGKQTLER
Procedure: as §1, §2, §6
The three TFPI (domain II) variants were purified from yeast culture medium. Their concentrations were determined from the absorbance at 214 nm using BPTI as a standard. The final concentration was determined by titration with trypsin. […]
as §9

Human plasmin = Human plasmin (Homo sapiens, UniProt P00747); experiment: Inhibition of serine proteinases: plasmin; assay type: biochemical; parameters: human plasmin and human plasma kallikrein was from Kabi (Stockholm, Sweden); purchased Kabi (Stockholm, Sweden); conditions: Example 3; 30 min incubation, FIG. 2
Human plasmin, sequence (P00747 581-810 limits assumed): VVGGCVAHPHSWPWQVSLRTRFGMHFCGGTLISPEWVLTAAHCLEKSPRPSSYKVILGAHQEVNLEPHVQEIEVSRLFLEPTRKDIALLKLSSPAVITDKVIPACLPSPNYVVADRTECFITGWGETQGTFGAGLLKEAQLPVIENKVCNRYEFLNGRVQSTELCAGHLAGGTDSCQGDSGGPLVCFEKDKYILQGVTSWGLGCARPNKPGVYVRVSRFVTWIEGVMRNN
Human plasmin, sequence (P00747 97-580 limits assumed): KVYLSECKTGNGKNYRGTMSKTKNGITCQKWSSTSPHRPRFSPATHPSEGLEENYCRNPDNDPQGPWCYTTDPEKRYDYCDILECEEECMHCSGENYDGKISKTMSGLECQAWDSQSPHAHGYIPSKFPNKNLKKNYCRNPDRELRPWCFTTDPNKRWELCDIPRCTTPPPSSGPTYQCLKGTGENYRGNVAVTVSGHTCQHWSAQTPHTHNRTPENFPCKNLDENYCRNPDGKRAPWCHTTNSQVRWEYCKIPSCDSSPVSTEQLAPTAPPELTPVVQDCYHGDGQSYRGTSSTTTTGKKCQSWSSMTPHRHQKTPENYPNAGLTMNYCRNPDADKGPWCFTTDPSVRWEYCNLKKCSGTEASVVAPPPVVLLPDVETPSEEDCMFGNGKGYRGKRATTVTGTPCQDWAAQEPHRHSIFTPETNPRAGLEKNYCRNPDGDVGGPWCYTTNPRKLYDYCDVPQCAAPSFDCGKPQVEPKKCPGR
Procedure: as §1, §2, §6, §7, §8, §9, §3, §4, §5

[5] = high doses; cardiac surgery including cardiopulmonary bypass operations; cited from earlier work
plasma kallikrein [6] = target: T3, plasma kallikrein; conditions: cf. WO 89/10374; cited from earlier work
Target sequence in this assay (P03952 20-638, species assumed): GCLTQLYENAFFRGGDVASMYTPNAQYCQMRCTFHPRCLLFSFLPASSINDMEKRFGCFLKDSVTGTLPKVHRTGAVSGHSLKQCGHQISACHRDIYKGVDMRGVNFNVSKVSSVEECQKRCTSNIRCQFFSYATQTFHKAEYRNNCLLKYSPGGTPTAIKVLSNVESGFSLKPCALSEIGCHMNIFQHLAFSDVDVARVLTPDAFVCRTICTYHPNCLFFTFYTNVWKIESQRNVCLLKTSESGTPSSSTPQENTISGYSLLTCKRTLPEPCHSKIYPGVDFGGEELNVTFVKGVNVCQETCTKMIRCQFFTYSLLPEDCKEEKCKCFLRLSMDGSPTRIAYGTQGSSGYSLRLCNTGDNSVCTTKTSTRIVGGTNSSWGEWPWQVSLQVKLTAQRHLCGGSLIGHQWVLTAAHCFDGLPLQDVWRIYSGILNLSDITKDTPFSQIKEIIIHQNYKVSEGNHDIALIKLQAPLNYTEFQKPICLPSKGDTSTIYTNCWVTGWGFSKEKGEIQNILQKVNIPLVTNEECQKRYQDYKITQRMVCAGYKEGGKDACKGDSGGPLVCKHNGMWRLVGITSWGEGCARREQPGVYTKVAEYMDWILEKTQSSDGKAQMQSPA

granulocyte elastase = target: T6, granulocyte elastase (Homo sapiens, UniProt P08246); conditions: Wenzel and Tschesche 1981; cited from earlier work
T6 sequence (P08246 30-267): T1 sequence (P08246 30-267)

collagenase = conditions: Wenzel and Tschesche 1981; cited from earlier work

Substance: KFN 1593: Unmodified TFPI Kunitz domain II (second Kunitz domain of tissue factor pathway inhibitor), produced from yeast strain KFN-1593 (RFESLEECKKMCTRDNANRIIKTTLQQEKPDFCFLEEDPGICRGYITRYFYNNQTKQC)
- inhibition of neutrophil elastase (in words) [1]: moderate inhibition
- inhibition of Cathepsin G (in words) [2]: essentially absent
- inhibition of kallikreins (in words): plasma kallikrein (plasma kallikrein [3]): essentially absent
- inhibition of kallikreins (in words): glandular kallikrein [4]: essentially absent
- Ki (human factor Xa): 150 nM
- inhibition of plasmin (in words) (Human plasmin): moderate inhibition

Substance: aprotinin
- blood loss in connection with cardiac surgery [5]: significantly reduces blood loss

Substance: aprotinin (3-58, Arg15, Ala17, Ser42)
- plasma kallikrein inhibitory effect (in words) (plasma kallikrein [6]): excellent plasma kallikrein inhibitory effect

Substance: aprotinin(1-58, Val15)
- effect on granulocyte elastase (in words) (granulocyte elastase): relatively high selectivity
- effect on collagenase (in words) (collagenase): inhibitory effect
